Drawing on paper PMC11850232, this text covers stoichiometry N for 1 substance.

Where “and” joins values, the source holds several entries; their conditions need not be identical. Identical values can stand only once.

Experiment [1] addresses Tilapia Lake virus nucleoprotein (TiLV-NP) (Tilapia Lake virus). Nature of the experiment: SEC-MALS; apo TiLV-NP injected at 5 and 3 mg/ml; Superdex 200 Increase 10/300 GL; 50 mM HEPES pH 8, 150 mM NaCl, 2 mM TCEP.
Experiment [2] shares this target. Nature of the experiment: mass photometry; RNA-bound TiLV-NP (40-mer vRNA loop) at 25 nM TiLV-NP; 50 mM HEPES pH 8, 150 mM NaCl, 2 mM TCEP.
Experiment [3] has the same target. The experiment is described as above. The source holds these as a separate data set.
For experiment [4] the target is unchanged. Nature of the experiment: mass photometry; apo TiLV-NP at 25 nM; 50 mM HEPES pH 8, 150 mM NaCl, 2 mM TCEP.
The target is the same in experiment [5]. Nature of the experiment: cryo-EM structure.

In the case of “Tilapia Lake virus nucleoprotein (TiLV-NP) (natural protein)”, the stoichiometry N in experiment [1] was 3 and 4; in experiment [2], 3 and 4; in experiment [3], 5 and 6; in experiment [4], 3 and 4 and 5; in experiment [5], 4 and 5 and 6.

In general, stoichiometry N refers to a count of units in the complex or per binding partner.
